Source: the supplement of paper PMC12042874
± gives the uncertainty stated by the source.

Test: amyloid nucleation score (Sup35N fusion, yeast selection) (log enrichment); library NNK2; higher = more nucleation; inactive = no reads after selection
How it was run: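 The nucleation score, computed with DiMSum, is the log enrichment of output over input reads, centred on the mode score of non-aggregating sequences. Sequences with under 100 input reads were dropped. Reads were generated by Illumina sequencing of plasmid inserts from psi-negative yeast with Sup35N fused to peptides of 20 random codons, induced with 100 μM copper sulfate for 24 hours and grown 7 days at 30°C on medium lacking adenine and uracil.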

Row | Substance | amyloid nucleation score
1 | KNDLRSSGWTAGSGISLEEG | -0.365 ± 0.76
2 | RVCPVSG | -0.068 ± 0.79
3 | LSLVNGLRDVFTSGWALRCW | 4.89 ± 0.05
4 | NKRSCNGCGSRAHQDSL | -0.176 ± 1.1
5 | FKVLVSLALSRECS | -0.75 ± 0.48
6 | SMIIQTQHI | 0.024 ± 0.55
7 | ECYDFYTWESYGLGCTSCEK | -0.01 ± 0.43
8 | NCETLCVLVGAQYC | 4.13 ± 0.049
9 | HTVTKVTLRLVCTMGCFKMM | 0.135 ± 0.65
10 | NHSVTWLPD | 1.27 ± 0.41
11 | YFRMNPKFVCTKYSNAEYLS | -0.427 ± 0.64
12 | RRIFYHEYHMRDSIH | 1.7 ± 0.1
13 | EYCACTFDWWGYQGCCD | -1.04 ± 0.63
14 | RADPVRVYSCVEVLGRALLG | inactive
15 | VNWLCRSWRSNRSLEG | 4.33 ± 0.087
16 | FGLYRVRGRSEYRVDHTGWG | 0.534 ± 0.51
17 | VRKLSRNLMICYKTVLSGDC | -0.105 ± 0.65
18 | FGDSDRMRAGRLWFMWSLVA | 0.639 ± 0.35
19 | RASASNR | -0.559 ± 0.36
20 | VYGCGSCLNCVVCMERCG | 9.094 ± 0.048
21 | TDMWPVYANRVFYNMSWSRP | inactive
22 | LSSKCYVA | -0.874 ± 1

Row | Substance | amyloid nucleation score
23 | RVPGRDALSIASWLQSTGQV | 1.03 ± 0.21
24 | VMIIFLDNKRYGKAPNCGRM | 7.263 ± 0.07
25 | PQWEKRFKYTNEWAATFNGL | inactive
26 | GLAMFKYIMAIVRNF | -0.855 ± 0.37
27 | CVLSKEI | 0.387 ± 0.3
28 | NILNFMDS | -0.603 ± 1.1
29 | VGVVGYVETSLLGLRRCG | -0.976 ± 0.54
30 | SLRFGYNFKFLAMIKFPHIR | -0.644 ± 0.78
31 | RVYDGAVVR | 0.547 ± 0.34
32 | IRNILWVLPKVVSDAFI | 0.325 ± 0.57
33 | RCFCG | 0.226 ± 0.35
34 | ILSFM | -1.27 ± 1
35 | QIELGALNNRCGNRDGSGDW | -0.842 ± 0.35
36 | FMARRNVAYILEYIIVYRF | -0.735 ± 0.64
37 | FYSVHSCLYVLIHRVQHACC | -0.235 ± 1.1
38 | GYSGVLILWEVVICWYGVTG | -0.313 ± 0.61
39 | SCNGCSSMRDIFIFHGLLHN | 7.165 ± 0.033
40 | PQRLWISISAHTLKFPHL | 3.77 ± 0.073
41 | SDAVSSILSFYRVPRAVGPE | inactive
42 | IDWCFGRRENVGGHVRWRNG | 1.48 ± 0.3
43 | YLVFKYTRGMFLVLCTPIWV | -1.17 ± 0.39
44 | WHSDSQTRRSSLSLLVCQID | 0.935 ± 0.66

Row | Substance | amyloid nucleation score
45 | RIVGDLICDVSSSQISTSHT | -0.291 ± 0.48
46 | NFADWTCFDIQVR | -0.186 ± 0.32
47 | LRESFKRWMLVVAATLYAFK | 0.376 ± 0.48
48 | EGQSGAILGLMRGTSWVESA | 0.984 ± 0.32
49 | HLDPRAPSVVWTMADGEEDA | 0.837 ± 0.22
50 | VVDSTVGRADGTCGGVVGFA | 0.87 ± 0.41
51 | IFKSHIPW | -1.22 ± 0.48
52 | CWSPLGTFSLLALMGASKTL | 0.103 ± 0.42
53 | SCSIPELNNEGIKVCFMNTE | 1.27 ± 0.13
54 | TCPCRYLDVNIDAMFVTMDI | 7.789 ± 0.056
55 | TVKNRA | 0.694 ± 0.51
56 | WLPYTCNFVMTVSRYSSMRG | inactive
57 | YLWPALPR | 0.142 ± 0.46
58 | SNCRQSPYNNQVI | 0.155 ± 1.1
59 | DYAFRVYSGIPLKLSNS | -0.373 ± 0.65
60 | SLARSTRFLYWSGNELVFIS | 3.66 ± 0.082
61 | YGDYMFHPETAVSL | 4.49 ± 0.064
62 | SPHDVGNSIVIMGFRMWLN | 0.082 ± 0.44
63 | EVVLFF | -1.35 ± 0.62
64 | LNNSIYHLGKY | inactive
65 | RVIVGRYWQSTDVVYYIWNF | -1.59 ± 0.76
66 | KFHGSVNGMFPAREITRDLR | 0.316 ± 0.23

Row | Substance | amyloid nucleation score
67 | YVDWAG | -1.56 ± 0.62
68 | RLKWKLEQNSSLLWGRYRTA | 1.24 ± 0.14
69 | KKVRNC | 0.436 ± 0.8
70 | KGFEIFSSFTLYV | -0.684 ± 0.55
71 | IGSVDDLNLKRICNDLDTP | 0.182 ± 0.79
72 | PLFTINRVVMPNINVETFAG | -0.522 ± 0.39
73 | PYGVSPWVRVVSCSIEGNWT | -0.289 ± 0.25
74 | FMRMGTFYSDAVCMLYVSKR | 1.28 ± 0.23
75 | CLWVSMDGHSFWRKFNAVI | inactive
76 | PHNYLYSFFRRIYYRIGCLN | -0.461 ± 0.3
77 | NCFFITGGNGYNAVLLKYIC | 3.83 ± 0.04
78 | EAFNTSCLVFLRNDWYWSGF | inactive
79 | TRDAVGVLTLSSTLTTCSTC | -0.26 ± 0.35
80 | AGKFYAGRHNSD | inactive
81 | DKGEEPELIV | 0.742 ± 0.16
82 | FSAEIRGTQRMLQRLSLYKR | 1.61 ± 0.092
83 | ASREWASSVVLW | 0.427 ± 0.29
84 | IRMGRANRWEVLARWTSVVA | 9.548 ± 0.079
85 | IYVPIGATQ | -1.26 ± 0.78
86 | QSKFDTFGSFACTYRYFTAN | 0.698 ± 0.8
